Experimental data: patent US20250170267A1, “ANTIBODY-DRUG CONJUGATE PRECURSOR AND INTERMEDIATE FOR SYNTHESIS THEREOF” (UBE Corporation, priority 2022, published 2025)
Numbered stars: 1 amine (or outer) side, 2 acyl side, 3 side chain; on linkers, the order of the positions; unused ones are H or OH. Square brackets hold non-standard residues; d marks the D form. Peptide text beside a SMILES is read from it. * marks the point of attachment. Exatecan = CC[C@@]1(O)C(=O)OCc2c1cc1n(c2=O)Cc2c-1nc1cc(F)c(C)c3c1c2[C@@H](N*)CC3; X7 = C[C@@H](N*)[C@@H](OC(=O)OCc1cn(C2OC(C(=O)O)C(O)C(O)C2O)nn1)c1ccccc1; βAla(2S-maleimido) = O=C1C=CC(=O)N1[C@@H](CN[*:1])C(=O)[*:2]; Dolaproine = CO[C@@H]([C@@H]1CCCN1)[C@@H](C)C(=O)O; Propanoyl(3-maleimido) = O=C1C=CC(=O)N1CCC(=O)*; X5 = C[C@@H](N[*:1])[C@@H](OC(=O)[*:2])c1ccccc1; Dil = CC[C@H](C)[C@H](NC)[C@@H](CC(=O)O)OC; X6 = O=C(O)C1OC(n2cc(CN*)nn2)C(O)C(O)C1O; PABC = O=C(OCc1ccc(N[*:1])cc1)[*:2]; X1 = C[C@@H](N*)[C@@H](O)c1ccccc1; hSer(lactone) = O=C1OCC[C@@H]1N*; Cit = NC(=O)NCCC[C@H](N)C(=O)O; PEG4 = NCCOCCOCCOCCOCCC(=O)O; NMeV = CN[C@H](C(=O)O)C(C)C; X2 = O=C1CC[C@@H](C(=O)*)O1; Sar = CNCC(=O)O

How the values were obtained:
porcine tubulin = biological target: T1, porcine tubulin (Sus scrofa, UniProt P02550+P02554); assay: Tubulin polymerization inhibition test; format: biochemical; settings: porcine tubulin, 37° C., fluorescence over 60 minutes; read-out: IC50 value (tubulin polymerization inhibition)
T1 construct: purchased Cytoskeleton, Inc. BK011P
T1 sequence (P02550 whole entry): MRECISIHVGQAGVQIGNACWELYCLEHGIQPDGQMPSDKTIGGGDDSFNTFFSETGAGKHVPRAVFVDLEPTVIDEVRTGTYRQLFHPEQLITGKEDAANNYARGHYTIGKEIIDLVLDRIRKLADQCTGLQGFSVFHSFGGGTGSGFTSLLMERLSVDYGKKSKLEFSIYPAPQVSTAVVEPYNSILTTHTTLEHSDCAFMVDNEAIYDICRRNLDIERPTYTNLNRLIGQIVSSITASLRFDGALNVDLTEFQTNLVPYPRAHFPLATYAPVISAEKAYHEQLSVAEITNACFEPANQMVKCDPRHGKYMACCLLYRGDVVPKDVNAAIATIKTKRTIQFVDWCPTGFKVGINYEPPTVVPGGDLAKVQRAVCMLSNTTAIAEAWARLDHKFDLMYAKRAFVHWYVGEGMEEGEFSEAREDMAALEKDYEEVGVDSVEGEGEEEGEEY
T1 sequence (P02554 whole entry): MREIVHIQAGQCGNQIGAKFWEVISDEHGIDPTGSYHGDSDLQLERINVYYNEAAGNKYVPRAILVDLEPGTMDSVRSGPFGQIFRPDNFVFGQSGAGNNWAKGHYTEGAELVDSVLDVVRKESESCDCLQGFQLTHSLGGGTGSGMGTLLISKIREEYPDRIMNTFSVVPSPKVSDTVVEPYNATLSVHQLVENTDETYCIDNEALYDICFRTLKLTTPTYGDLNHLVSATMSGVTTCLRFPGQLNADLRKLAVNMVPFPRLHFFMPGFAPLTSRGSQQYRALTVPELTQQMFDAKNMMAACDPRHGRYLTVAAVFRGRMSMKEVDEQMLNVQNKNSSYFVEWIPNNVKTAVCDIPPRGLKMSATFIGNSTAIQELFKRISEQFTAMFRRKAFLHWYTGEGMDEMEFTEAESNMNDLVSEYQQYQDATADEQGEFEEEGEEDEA
Protocol: For measuring the tubulin polymerization inhibitory action, Tubulin Polymerization Assay Kit (manufactured by Cytoskeleton, Inc., BK011P) was used. A PIPES buffer containing porcine tubulin, GTP, MgCl2, EGTA, Glycerol, and a fluorescent reporter was prepared under ice-cooling as a reaction solution. The reaction solution was ice-cooled until it was used. A test compound solution was prepared by an aqueous solution containing 1.5% DMSO, and added to a 96 well plate (manufactured by Corning Inc., 3686) at 5 μL/well. The reaction solution was added thereto at 50 μL/well, the plate was placed in a microplate reader (FlexStation 3, manufactured by Molecular Device, LLC) in which the internal temperature was set to 37° C. in advance, and the fluorescence intensity measurement (excitation wavelength: 360 nm, detection wavelength: 420 nm) of each well was started. The fluorescence intensity was measured once every minute, and the measurement was continued for 60 minutes.
The tubulin polymerization inhibition rate (%) was calculated by the following equation.
[formula] • a: average amount of fluorescence intensity increase in vehicle-treated well (n=2) • b: average amount of fluorescence intensity increase in test compound-treated well (n=2)
Amount of fluorescence intensity increase: (average fluorescence intensity after 51 to 60 minutes from measurement start)−(average fluorescence intensity after 1 to 6 minutes from measurement start)

human liver Cathepsin B = biological target: T2, human liver Cathepsin B (Homo sapiens, UniProt P07858); assay: Metabolism test using human liver Cathepsin B; format: in vitro ADME; settings: 37° C., 24 hours, released drug, LC-MS/MS
T2 construct: human liver Cathepsin B (manufactured by Sigma-Aldrich Co. LLC, Cat No. C8571 25 μg/vial); purchased Sigma-Aldrich Co. LLC C8571; host or cells: human liver
Protocol: To human liver Cathepsin B (manufactured by Sigma-Aldrich Co. LLC, Cat No. C8571 25 μg/vial)(corresponding to 400 Unit/mL)(5 μL), X10 Catabolic Buffer (manufactured by SEKISUI-Xenotech, LLC., K5200)(10 μL), 2.5 mM Bovine Serum Albumin (manufactured by FUJIFILM Wako Pure Chemical Corporation, Cat No. 012-15093)(5 μL), and distilled water (manufactured by FUJIFILM Wako Pure Chemical Corporation, for HPLC)(55 μL) was added 1.2 μM test compound (antibody-drug conjugate prepared in ADC Production examples)(25 μL) dissolved in PBS to prepare a reaction solution. After the reaction solution was incubated at 37° C. for 24 hours, “an antitumor drug molecule or an analog thereof, or a derivative thereof” released from the antibody-drug conjugate into the reaction solution was quantified by LC-MS/MS (high performance liquid chromatography/mass spectrometer system) under the following conditions. LC-MS/MS analysis conditions
(§1) LC: LC20 or LC30 HPLC system manufactured by Shimadzu Corporation
(§2) Column: Phenomenex Kinetex C18 (50×2.1 mm, 2.6 μm)
(§3) Column temperature: 40° C.
(§4) Mobile phase A: 0.1% aqueous solution of formic acid, Mobile phase B: 0.1% solution of formic acid in a mixture of 50% acetonitrile/methanol
(§5) Mode: Positive or Negative
(§6) The release rate (%) of drug was calculated by the following equation.

human liver lysosome = assay: Metabolism test using human liver lysosomal fraction; format: in vitro ADME; settings: 37° C., 24 hours, released drug, LC-MS/MS
Protocol: To a reaction composition solution (X10 Catabolic Buffer (manufactured by SEKISUI-Xenotech, LLC., K5200))(60 μL) in which human liver lysosome (manufactured by SEKISUI-Xenotech, LLC., Cat No. H610.L 2.5 mg/mL)(corresponding to 0.125 mg of protein) was suspended and distilled water (manufactured by FUJIFILM Wako Pure Chemical Corporation, for HPLC)(10 μL) was added 1.2 μM test compound (antibody-drug conjugate produced in ADC Production examples)(25 μL) dissolved in PBS to prepare a reaction solution. After the reaction solution was incubated at 37° C. for 24 hours, “an antitumor drug molecule or an analog thereof, or a derivative thereof” released from the antibody-drug conjugate into the reaction solution was quantified by LC-MS/MS (high performance liquid chromatography/mass spectrometer system) under the following conditions. LC-MS/MS analysis conditions
as §1, §2, §3, §4, §5, §6

| SMILES | IC50 (porcine tubulin) | Release rate (%) of drug from ADC (human liver Cathepsin B) | Release rate (%) of drug from ADC (human liver lysosome) |
| --- | --- | --- | --- |
| CC[C@H](C)[C@@H]([C@@H](CC(=O)N1CCC[C@H]1[C@H](OC)[C@@H](C)C(=O)N[C@H](C)[C@@H](O)c1ccccc1)OC)N(C)C(=O)[C@@H](NC(=O)[C@H](C(C)C)N(C)Cc1cc(N)ccc1F)C(C)C [Example U-008] | ≤ 3 µM | – | – |
| CCN(CC(=O)N[C@H]1CCc2c(C)c(F)cc3nc4c(c1c23)Cn1c-4cc2c(c1=O)COC(=O)[C@]2(O)CC)C(=O)OCc1ccc(NC(=O)[C@H](CCCNC(N)=O)NC(=O)[C@@H](NC(=O)[C@H](CC(=O)N[C@H]2CCOC2=O)NC(=O)CCOCCOCCOCCOCCNC(=O)[C@H](CNC(=O)CCP(=O)(O)O)N2C(=O)C=CC2=O)C(C)C)cc1 [Example 9] | – | 40% | 98% |
| CC[C@@]1(O)C(=O)OCc2c1cc1n(c2=O)Cc2c-1nc1cc(F)c(C)c3c1c2[C@@H](NC(=O)CN(C)C(=O)OCc1ccc(NC(=O)[C@H](CCCNC(N)=O)NC(=O)[C@@H](NC(=O)[C@H](CC(=O)N[C@H]2CCOC2=O)NC(=O)CCOCCOCCOCCOCCNC(=O)CCN2C(=O)C=CC2=O)C(C)C)cc1)CC3 [Example 4] ({Propanoyl(3-maleimido)-PEG4}-D(hSer(lactone))V[Cit][PABC][Sar]-Exatecan) | – | 97% | 76% |
| CC[C@H](C)[C@@H]([C@@H](CC(=O)N1CCC[C@H]1[C@H](OC)[C@@H](C)C(=O)N[C@H](C)[C@@H](OC(=O)NCc1cn(C2OC(C(=O)O)C(O)C(O)C2O)nn1)c1ccccc1)OC)N(C)C(=O)[C@@H](NC(=O)[C@@H](NC)C(C)C)C(C)C (some centres unmarked) [Example U-019] (H-[NMeV]V[Dil][Dolaproine][X5]-X6) | ≤ 3 µM | – | – |
| CC[C@H](C)[C@@H]([C@@H](CC(=O)N1CCC[C@H]1[C@H](OC)[C@@H](C)C(=O)N[C@H](C)[C@@H](O)c1ccccc1)OC)N(C)C(=O)[C@@H](NC(=O)[C@H](C(C)C)N(C)CCONC)C(C)C [Example U-013] | ≤ 3 µM | – | – |
| CC[C@H](C)[C@@H]([C@@H](CC(=O)N1CCC[C@H]1[C@H](OC)[C@@H](C)C(=O)N[C@H](C)[C@@H](O)c1ccccc1)OC)N(C)C(=O)[C@@H](NC(=O)[C@H](C(C)C)N(C)C(=O)OCc1ccc(NC(=O)[C@H](CCCNC(N)=O)NC(=O)[C@@H](NC(=O)[C@H](CC(=O)N[C@H]2CCOC2=O)NC(=O)CCOCCOCCOCCOCCNC(=O)[C@H](CNC(=O)[C@@H]2CCC(=O)O2)N2C(=O)C=CC2=O)C(C)C)cc1)C(C)C [Example 7] (X2-[βAla(2S-maleimido)][PEG4]D(hSer(lactone))V[Cit][PABC][NMeV]V[Dil][Dolaproine]-X1) | – | 65% | 86% |
| CC[C@@]1(OC(=O)OCc2ccc(NC(=O)[C@H](CCCNC(N)=O)NC(=O)[C@@H](NC(=O)[C@H](CC(=O)N[C@H]3CCOC3=O)NC(=O)CCOCCOCCOCCOCCNC(=O)[C@H](CNC(=O)CCP(=O)(O)O)N3C(=O)C=CC3=O)C(C)C)cc2)C(=O)OCc2c1cc1n(c2=O)Cc2c-1nc1cc(F)c(C)c3c1c2[C@@H](NC(C)=O)CC3 [Example 10] | – | 28% | 61% |
| CC[C@H](C)[C@@H]([C@@H](CC(=O)N1CCC[C@H]1[C@H](OC)[C@@H](C)C(=O)N[C@H](C)[C@@H](OC(=O)NCCOCCOCCOCCOCCOCCOCCOCCOCCOCCOCCOCCOC)c1ccccc1)OC)N(C)C(=O)[C@@H](NC(=O)[C@@H](NC)C(C)C)C(C)C [Example U-015] | ≤ 3 µM | – | – |
| CC[C@H](C)[C@@H]([C@@H](CC(=O)N1CCC[C@H]1[C@H](OC)[C@@H](C)C(=O)N[C@H](C)[C@@H](O)c1ccccc1)OC)N(C)C(=O)[C@@H](NC(=O)[C@H](C(C)C)N(C)CCc1ccc(N)cc1F)C(C)C [Example U-016] | ≤ 3 µM | – | – |
| CC[C@H](C)[C@@H]([C@@H](CC(=O)N1CCC[C@H]1[C@H](OC)[C@@H](C)C(=O)N[C@H](C)[C@@H](OC(=O)OCc1cn(C2OC(C(=O)O)C(O)C(O)C2O)nn1)c1ccccc1)OC)N(C)C(=O)[C@@H](NC(=O)[C@@H](NC)C(C)C)C(C)C (some centres unmarked) [Example U-020] (H-[NMeV]V[Dil][Dolaproine]-X7) | ≤ 3 µM | – | – |
